The target in experiment [1] is T1, human ANGPTL3(17-170)-Flag-His (human).
T1 chain: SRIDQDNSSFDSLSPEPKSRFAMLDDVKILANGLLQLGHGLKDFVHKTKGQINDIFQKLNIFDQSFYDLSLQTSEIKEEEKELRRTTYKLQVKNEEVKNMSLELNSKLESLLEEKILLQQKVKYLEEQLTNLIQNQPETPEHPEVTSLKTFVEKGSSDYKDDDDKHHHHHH
Description: cell-based or functional assay.

The next experiment deals with T2, rat ANGPTL3(17-455)-His (rat, biotin-labelled in the ELISA and HTRF assays (sites not given)).
T2 construct: also called full-length rat ANGPTL3
T2 chain: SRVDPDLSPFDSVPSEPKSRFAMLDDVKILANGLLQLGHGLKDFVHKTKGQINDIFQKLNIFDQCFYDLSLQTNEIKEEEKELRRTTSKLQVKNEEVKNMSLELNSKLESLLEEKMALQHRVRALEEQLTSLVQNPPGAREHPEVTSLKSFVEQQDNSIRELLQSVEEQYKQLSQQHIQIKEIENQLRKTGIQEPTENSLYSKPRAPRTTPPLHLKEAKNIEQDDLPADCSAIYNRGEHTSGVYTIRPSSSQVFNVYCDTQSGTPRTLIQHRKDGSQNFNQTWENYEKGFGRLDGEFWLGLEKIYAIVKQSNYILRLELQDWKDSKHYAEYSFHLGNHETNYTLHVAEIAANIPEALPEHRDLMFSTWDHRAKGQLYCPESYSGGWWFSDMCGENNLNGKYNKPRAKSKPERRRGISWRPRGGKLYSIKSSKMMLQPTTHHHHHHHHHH
Description: HTRF; biotin-labelled antigen with Streptavidin-Tb cryptate. A general note: TR-FRET usually uses a lanthanide donor and a delayed reading to cut background.

Experiment [2] concerns the target T3, human-ANGPTL3(17-460)-His (human, UniProt Q9Y5C1 17-460, biotin-labelled (labelling kit, sites not stated)).
T3 construct: also called full-length human ANGPTL3
T3 sequence: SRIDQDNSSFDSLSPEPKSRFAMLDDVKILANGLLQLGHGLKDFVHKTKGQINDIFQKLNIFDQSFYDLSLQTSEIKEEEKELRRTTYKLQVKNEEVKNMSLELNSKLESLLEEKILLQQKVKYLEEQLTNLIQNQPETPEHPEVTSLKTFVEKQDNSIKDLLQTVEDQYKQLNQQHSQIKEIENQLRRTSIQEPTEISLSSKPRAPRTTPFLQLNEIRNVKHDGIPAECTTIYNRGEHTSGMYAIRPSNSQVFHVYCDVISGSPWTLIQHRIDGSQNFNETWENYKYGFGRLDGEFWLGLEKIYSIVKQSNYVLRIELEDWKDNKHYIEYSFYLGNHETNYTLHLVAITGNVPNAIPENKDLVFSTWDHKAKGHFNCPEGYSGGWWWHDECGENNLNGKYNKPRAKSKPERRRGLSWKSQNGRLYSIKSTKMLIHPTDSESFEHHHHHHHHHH
Described as above.

Experiment [3] concerns the target T4, mouse ANGPTL3(17-455)-His (mouse, UniProt Q9R182 17-455, biotin-labelled in the ELISA and HTRF assays (sites not given)).
T4 construct: also called full-length mouse ANGPTL3
T4 sequence: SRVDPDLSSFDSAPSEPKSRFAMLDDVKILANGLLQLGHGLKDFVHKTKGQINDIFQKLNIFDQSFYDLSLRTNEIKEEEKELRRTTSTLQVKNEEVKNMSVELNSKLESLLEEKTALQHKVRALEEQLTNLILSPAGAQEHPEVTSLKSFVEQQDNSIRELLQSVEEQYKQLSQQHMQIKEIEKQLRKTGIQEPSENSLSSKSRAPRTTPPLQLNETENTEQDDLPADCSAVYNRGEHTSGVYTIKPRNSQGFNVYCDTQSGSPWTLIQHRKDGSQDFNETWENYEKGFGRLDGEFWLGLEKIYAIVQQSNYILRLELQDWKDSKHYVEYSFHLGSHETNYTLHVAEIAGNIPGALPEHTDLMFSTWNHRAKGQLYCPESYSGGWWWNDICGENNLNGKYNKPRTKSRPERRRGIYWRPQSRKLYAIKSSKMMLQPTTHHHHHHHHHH
The experiment is described as above.

Experiment [4] has as its target T5, cynomolgus monkey ANGPTL3(17-460)-His (cynomolgus monkey, UniProt Q9Y5C1 17-460 (human entry), biotin-labelled in the ELISA and HTRF assays (sites not given)).
T5 construct: also called full-length cynomolgus monkey ANGPTL3; Cyno ANGPTL3
T5 chain: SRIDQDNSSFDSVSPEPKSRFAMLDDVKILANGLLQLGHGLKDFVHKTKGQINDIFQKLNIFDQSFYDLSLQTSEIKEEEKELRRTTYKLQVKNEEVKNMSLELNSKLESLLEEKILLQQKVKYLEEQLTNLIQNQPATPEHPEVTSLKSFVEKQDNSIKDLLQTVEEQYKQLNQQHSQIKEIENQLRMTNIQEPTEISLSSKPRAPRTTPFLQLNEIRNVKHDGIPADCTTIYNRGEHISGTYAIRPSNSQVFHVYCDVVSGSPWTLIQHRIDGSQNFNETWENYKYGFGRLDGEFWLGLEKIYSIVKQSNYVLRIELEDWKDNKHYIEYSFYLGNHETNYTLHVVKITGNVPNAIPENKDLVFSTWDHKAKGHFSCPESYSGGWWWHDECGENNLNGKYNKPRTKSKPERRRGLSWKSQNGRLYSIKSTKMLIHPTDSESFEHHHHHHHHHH
The description is as above.

B1: P8BG (antibody, human IgG4 S228P, kappa, V domains shown)
VH: QVQLVQSGAEVKKPGASVKVSCKASGYTFTSYDINWVRQAPGQGLEWVGLINPREDSTSYAQKFQGRVTMTRDTSTSTMYMELSSLRSEDTAVYFCARDLGSIREVLYYGMDVWGQGTTVTVSS
VL: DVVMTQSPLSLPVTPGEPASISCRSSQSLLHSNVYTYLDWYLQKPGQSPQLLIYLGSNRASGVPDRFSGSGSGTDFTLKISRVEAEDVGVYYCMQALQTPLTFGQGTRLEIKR
notes: also called anti-ANGPTL3 antibody P8BG; P8B (variable regions)
With B1, the “IC50 of blocking the inhibition of bovine LPL enzyme activity by ANGPTL3” value in experiment [1] is 75.3 nM. Further, the EC50 with rat ANGPTL3(17-455)-His stood at 0.362 nM; in experiment [2] it was 0.277 nM; in experiment [3], 0.321 nM; in experiment [4] it was 0.36 nM.

B2: P3G (antibody, human IgG4 S228P, kappa, V domains shown)
VH: QVQLVQSGAEVKKPGASVKVSCKSSGYTFTDYYLHWLRQAPGQGPEWMGWISPNSGGTSYAQKFQGRVTMTRDTSISTAYMELSSLRSDDTAVYYCARDIATLGNFFTYGMDVWGQGTTVTVSS
VL: DIQLTQSPSSLSASVGDRVTITCRASQGIRNDLGWYQQKPGKAPKLLIYAASSLQSGVPSRFSGSGSGTDFTLTISSLQPEDFATYYCQQSYSSWTFGQGTKVEIKR
notes: also called anti-ANGPTL3 antibody P3G; P3 (variable regions)
Consider B2, for which, in experiment [1], the “IC50 of blocking the inhibition of bovine LPL enzyme activity by ANGPTL3” value was 68.9 nM.

By EC50 is commonly meant the concentration needed to bring the measured effect to its halfway point.

These data come from patent US20230138315A1 (JIANGSU HENGRUI MEDICINE, published 2023).
